Results published in IntAct's records for PubMed 19759058.

B1: Poly [ADP-ribose] polymerase 1 (Mus musculus), P11103 (parent)
chain: MAEASERLYRVQYAKSGRASCKKCSESIPKDSLRMAIMVQSPMFDGKVPHWYHFSCFWKVGQSIRHPDVEVDGFSELRWDDQQKVKKTAEAGGVAGKGQDGSGGKAEKTLGDFAAEYAKSNRSMCKGCLEKIEKGQMRLSKKMVDPEKPQLGMIDRWYHPTCFVKKRDELGFRPEYSASQLKGFSLLSAEDKEALKKQLPAIKNEGKRKGDEVDGTDEVAKKKSRKETDKYSKLEKALKAQNELIWNIKDELKKACSTNDLKELLIFNQQQVPSGESAILDRVADGMAFGALLPCKECSGQLVFKSDAYYCTGDVTAWTKCMVKTQNPSRKEWVTPKEFREISYLKKLKVKKQDRIFPPESSAPITVHWPLSVTSAPTAVNSSAPADKPLSNMKILTLGKLSQNKDEAKAVIEKLGGKLTGSANKASLCISIKKEVEKMNKKMEEVKEANIRVVSEDFLQDVSASTKSLQDLLSAHSLSPWGAEVKAEPGEVVAPRGKSAAPSKKSKGCFKEEGVNKSEKRMKLTLKGGAAVDPDSGLEHSAHVLEKGGKVFSATLGLVDIVKGTNSYYKLQLLEDDKESRYWIFRSWGRLGTVIGSNKLEQMPSKEEAVEQFMKLYEEKTGNAWHSKNFTKYPKKFYPLEIDYGQDEEAVKKLTVKPGTKSKLPKPVQELVGMIFDVDSMKKALVEYEIDLQKMPLGKLSRRQIQAAYSILSEVQQPVSQGSSESQILDLSNRFYTLIPHDFGMKKPPLLNNADSVQAKVEMLDNLLDIEVAYSLLRGGSDDSSKDPIDVNYEKLKTDIKVVDRDSEEAEVIRKYVKNTHATTHNAYDLEVIDIFKIEREGESQRYKPFRQLHNRRLLWHGSRTTNFAGILSQGLRIAPPEAPVTGYMFGKGIYFADMVSKSANYCHTSQGDPIGLIMLGEVALGNMYELKHASHISKLPKGKHSVKGLGKTTPDPSASITLEGVEVPLGTGIPSGVNDTALLYNEYIVYDIAQVNLKYLLKLKFNFKTSLW
partner: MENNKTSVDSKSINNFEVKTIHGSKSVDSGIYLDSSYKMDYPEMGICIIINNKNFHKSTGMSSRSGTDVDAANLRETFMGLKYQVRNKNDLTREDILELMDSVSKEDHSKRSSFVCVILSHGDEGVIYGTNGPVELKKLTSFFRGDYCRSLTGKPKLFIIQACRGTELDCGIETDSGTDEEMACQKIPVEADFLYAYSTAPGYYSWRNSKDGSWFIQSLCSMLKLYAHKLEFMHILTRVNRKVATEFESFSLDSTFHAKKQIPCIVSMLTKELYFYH

Variants of: B1
Conditions: with casp3_mouse Casp3, P70677

| effect of a mutation on the interaction | Variant |
| --- | --- |
| decreasing interaction | G210K |
